According to patent US20140050720A1, “ULTRALONG COMPLEMENTARITY DETERMINING REGIONS AND USES THEREOF” (THE SCRIPPS RESEARCH INSTITUTE, priority 2012, published 2014):

Key:
Format in all cases: cell-based
[1] = tested on: Human T cells; experiment: Inhibition of T cells activation (secreted TNF-α ELISA); conditions: T cells activated by anti-CD3 and CD28 antibodies, 24 h
Description: Human PBMCs were isolated from fresh venous blood of healthy donors through ficoll gradient centrifugation, followed by resuspension in RPMI1640 medium with 10% FBS and plating in 96-well plates at a density of 1×10^6 cells/mL. Human T cells were purified from the isolated PBMCs using T cell enrichment kit. Purified PBMCs and T cells were pretreated for 1 h at 37° C. with 5% CO2 with various concentrations of purified BLV1H12-Moka1 fusion antibodies and then activated by anti-CD3 and CD28 antibodies. After 24 h treatment, supernatant was collected for measurement of the levels of secreted TNF-α using ELISA kit.
Human T cells were purified from the isolated PBMCs using T cell enrichment kit. Purified T cells were pretreated for 1 h at 37° C. with 5% CO2 with various concentrations of purified BLV1H12-VM24 fusion antibodies and then activated by anti-CD3 and CD28 antibodies. After 24 h treatment, supernatant was collected for measurement of the levels of secreted TNF-a using ELISA kit. FIGS. 18B-C and Table 15 show the BLV1H12-VM24 fusion antibodies inhibitory activities on T cells activation.

[2] = biological target: T1, GLP-1 receptor (GLP-1R) (Homo sapiens, UniProt P43220); experiment: GLP-1R activation, cAMP responsive luciferase reporter in HEK293 cells; conditions: HEK293 cells expressing GLP-1R, 24 h
T1 construct: expressed in transfected cells; host or cells: HEK293 cells expressing surface GLP-1R and a cAMP responsive luciferase reporter
T1 sequence (P43220 24-463, species assumed): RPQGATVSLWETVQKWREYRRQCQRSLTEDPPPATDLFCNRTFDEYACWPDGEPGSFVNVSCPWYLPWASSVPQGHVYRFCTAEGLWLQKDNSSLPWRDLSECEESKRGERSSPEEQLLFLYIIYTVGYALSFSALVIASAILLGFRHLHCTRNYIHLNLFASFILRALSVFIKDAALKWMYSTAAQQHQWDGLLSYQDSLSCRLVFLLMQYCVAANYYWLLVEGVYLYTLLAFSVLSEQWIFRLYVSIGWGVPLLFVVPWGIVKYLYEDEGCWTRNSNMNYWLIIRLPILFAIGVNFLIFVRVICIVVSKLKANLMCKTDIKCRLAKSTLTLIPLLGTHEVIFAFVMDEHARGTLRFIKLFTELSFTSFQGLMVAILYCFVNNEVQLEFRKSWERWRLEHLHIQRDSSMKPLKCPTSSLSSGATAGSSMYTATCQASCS
Description: HEK293 cells expressing surface GLP-1R and cAMP responsive luciferase reporter gene were seeded in 384 well plates at a density of 5000 cells per well. […] Subsequently, luciferase assay was performed using One-Glo luciferase reagent according manufacture's instruction (Promega).
HEK293 cells expressing surface GLP-1R and cAMP responsive luciferase reporter gene were seeded in 384 well plates at a density of 5000 cells per well. After 24 h incubation at 37° C. with 5% CO2, cells were treated with various concentrations of peptides and BLV1H12-GLP-1 clip fusion proteins and incubated for another 24 h. Subsequently, luciferase assay was performed using One-Glo luciferase reagent according manufacture's instruction (Promega).

[3] = tested on: TF-1 cells; experiment: Proliferation assay on TF-1 cells (AlamarBlue); conditions: 72 h
Description: TF-1 cells were obtained from American Type Culture Collection (ATCC), VA, and cultured in RPMI-1640 medium supplemented with 10% fetal bovine serum (FBS), penicillin, streptomycin and 2 ng/mL granulocyte-macrophage colony-stimulating factor (GM-CSF). For proliferation assay, TF-1 cells were washed three times with RPMI-1640 medium and resuspended in RPMI-1640 medium with 10% FBS and penicillin and streptomycin at a density of 1.5×10^5 cells/ml. Cells were plated in 96-well plates and treated with varied concentrations of BLV1H12-hEPO fusion antibodies. After 72 h of incubation at 37° C. with 5% CO2, cells viabilities were measured using AlamarBlue (Invitrogen) assay following manufacture's instruction. FIG. 21 and Table 18 show the proliferative activity of Ab-hEPO fusion antibodies on TF1 cells.

Substance | F.I. (secreted TNF-α, ELISA) ([1]; 0.45725 nM) | F.I. (secreted TNF-α, ELISA) ([1]; 1.37174 nM) | F.I. (secreted TNF-α, ELISA) ([1]; 4.11523 nM) | F.I. (secreted TNF-α, ELISA) ([1]; 12.34568 nM) | F.I. (secreted TNF-α, ELISA) ([1]; 37.03704 nM) | F.I. (secreted TNF-α, ELISA) ([1]; 111.11111 nM) | F.I. (secreted TNF-α, ELISA) ([1]; 333.33333 nM) | F.I. (secreted TNF-α, ELISA) ([1]; 1000 nM) | RLU (luciferase reporter) ([2]; 1.26953 nM) | RLU (luciferase reporter) ([2]; 2.53906 nM) | RLU (luciferase reporter) ([2]; 5.07813 nM) | RLU (luciferase reporter) ([2]; 10.15625 nM) | RLU (luciferase reporter) ([2]; 20.3125 nM) | RLU (luciferase reporter) ([2]; 40.625 nM) | RLU (luciferase reporter) ([2]; 81.25 nM) | RLU (luciferase reporter) ([2]; 162.5 nM) | RLU (luciferase reporter) ([2]; 325 nM) | RLU (luciferase reporter) ([2]; 650 nM) | also measured
Ab-VM24-L2: Vm24 in BLV1H12 CDR3H, first linker=GGGSGGGGS and second linker=GGGGSGGGS; DNA SEQ ID NO: 14 | 3156.626 | 3345.846 | 3518.316 | 3607.5755 | 3508.0475 | 3220.2475 | 2465.838 | 1306.0215 | – | – | – | – | – | – | – | – | – | – | –
Ab-Ex4(RN): BLV1H12-Ex-4 fusion antibody treated with Factor Xa protease to release N-terminal of Ex-4 | – | – | – | – | – | – | – | – | 128740 | 153820 | 163020 | 169360 | 161380 | 154920 | 163700 | 163860 | 164160 | 155700 | RLU (luciferase reporter) ([2]; 0.00248 nM): 24120; RLU (luciferase reporter) ([2]; 0.00496 nM): 26320; RLU (luciferase reporter) ([2]; 0.00992 nM): 28140; RLU (luciferase reporter) ([2]; 0.01984 nM): 33500; RLU (luciferase reporter) ([2]; 0.03967 nM): 34180; RLU (luciferase reporter) ([2]; 0.07935 nM): 48860; RLU (luciferase reporter) ([2]; 0.31738 nM): 80740; RLU (luciferase reporter) ([2]; 0.63477 nM): 117240; RLU (luciferase reporter) ([2]; 1300 nM): 168740
Ab-hEPO: human EPO with GGGGS linkers grafted into BLV1H12 CDR3H; DNA SEQ ID NO: 10 | – | – | – | – | – | – | – | – | – | – | – | – | – | – | – | – | – | – | F.I. (AlamarBlue, cell viability) ([3]; 0.00236 nM): 4198.65; F.I. (AlamarBlue, cell viability) ([3]; 0.01178 nM): 4757.196; F.I. (AlamarBlue, cell viability) ([3]; 0.05888 nM): 5265.069; F.I. (AlamarBlue, cell viability) ([3]; 0.2944 nM): 6430.723; F.I. (AlamarBlue, cell viability) ([3]; 1.472 nM): 8963.889; F.I. (AlamarBlue, cell viability) ([3]; 7.36 nM): 10330.18; F.I. (AlamarBlue, cell viability) ([3]; 36.8 nM): 10776.73; F.I. (AlamarBlue, cell viability) ([3]; 184 nM): 10330.44; F.I. (AlamarBlue, cell viability) ([3]; 4.71E−04 nM): 4324.037; F.I. (AlamarBlue, cell viability) ([3]; 9.42E−05 nM): 4361.92
Ab-Ex4: Exendin-4 with Factor Xa cleavage site and GGGGS linkers grafted into BLV1H12 CDR3H; DNA SEQ ID NO: 8 | – | – | – | – | – | – | – | – | 6120 | 6360 | 8500 | 10420 | 19340 | 27960 | 54800 | 90660 | 117900 | 134760 | –
Ab-VM24 L1: Vm24 in BLV1H12 CDR3H, linker=GGGGS; DNA SEQ ID NO: 13 | 3427.004 | 3265.969 | 3499.82 | 3627.431 | 3575.4815 | 3085.439 | 1853.645 | 990.818 | – | – | – | – | – | – | – | – | – | – | –
